These results are taken from IntAct's records for PubMed 21037004.

B1: Protein-export protein SecB (Escherichia coli (strain K12)), P0AG86 (parent)
chain: MSEQNNTEMTFQIQRIYTKDISFEAPNAPHVFQKDWQPEVKLDLDTASSQLADDVYEVVLRVTVTASLGEETAFLCEVQQGGIFSIAGIEGTQMAHCLGAYCPNILFPYARECITSMVSRGTFPQLNLAPVNFDALFMNYLQQQAGEGTEEHQDA

The test covers variants of B1. The conditions noted are these: with seca_ecoli secA.
As to Q50C, the “effect of a mutation on the interaction” value is recorded as “increasing interaction strength”. In the case of L136C, the “effect of a mutation on the interaction” value is “increasing interaction strength”. In the case of A87C it was “increasing interaction strength”.

Turning to Q143C, the “effect of a mutation on the interaction” value is on record as “increasing interaction strength”. In the case of T149C it was “increasing interaction strength”; in that of S85C, “increasing interaction strength”; in that of E150C, “increasing interaction strength”. Turning to A155C, the “effect of a mutation on the interaction” value is “increasing interaction strength”.

Take D43C: the “effect of a mutation on the interaction” value is listed as “increasing interaction strength”. Consider T65C, for which the “effect of a mutation on the interaction” value is “increasing interaction strength”. As to D45C, the “effect of a mutation on the interaction” value was “increasing interaction strength”.

As to Q33C, the “effect of a mutation on the interaction” value was “increasing interaction strength”. On to E147C, for which the “effect of a mutation on the interaction” value was “increasing interaction strength”.

As to L126C, the “effect of a mutation on the interaction” value is reported as “increasing interaction strength”.

Consider G146E, for which the “effect of a mutation on the interaction” value is recorded as “increasing interaction strength”. Take L141C: the “effect of a mutation on the interaction” value is “increasing interaction strength”.

With T92C, the “effect of a mutation on the interaction” value is “increasing interaction strength”.

Regarding T46C, the “effect of a mutation on the interaction” value is “increasing interaction strength”. In the case of E24C it was “increasing interaction strength”. With D35C, the “effect of a mutation on the interaction” value is “increasing interaction strength”. Turning to Q14C, the “effect of a mutation on the interaction” value is “increasing interaction strength”.
